Results as given in article PMC2120044 (The Journal of Cell Biology, 1994).

Target: the molecule itself
Assay: SEC

B1: cofactor A purified from bovine testis (natural protein, UniProt P48427 1-108, looked up)
chain: MADPRVRQIKIKTGVVKRLVKEKMMYEKEAKQQEEKIEKMKAEDGENYAIKKQAEILQESRMMIPDCQRRLEAAHTDLLQLLESEKDLEEAEEYKEARLVLDSVKLEA
**Q.** For B1, which “stoichiometry N” value is on record?
**A.** 2
